Source: PMC7774594, “Functional Characterization of Primordial Protein Repair Enzyme M38 Metallo-Peptidase From Fervidobacterium islandicum AW-1” (Frontiers in Molecular Biosciences, 2020)

What was measured:
[1] = target: T1, FiBAP (M38 β-aspartyl peptidase from Fervidobacterium islandicum AW-1) (Fervidobacterium islandicum, UniProt A0AAI8CML9); assay: enzyme activity inhibition (data not shown); format: biochemical; settings: substrate analog inhibitor, conditions not given
T1 construct: gene iadA; full length (M1-E386), 6xHis tag (N-terminal per methods with pET-28a, C-terminal per results), E. coli BL21(DE3); 42 kDa monomer, 318 kDa octamer (tetramer of dimers); binuclear Zn
T1 sequence (A0AAI8CML9 1-387): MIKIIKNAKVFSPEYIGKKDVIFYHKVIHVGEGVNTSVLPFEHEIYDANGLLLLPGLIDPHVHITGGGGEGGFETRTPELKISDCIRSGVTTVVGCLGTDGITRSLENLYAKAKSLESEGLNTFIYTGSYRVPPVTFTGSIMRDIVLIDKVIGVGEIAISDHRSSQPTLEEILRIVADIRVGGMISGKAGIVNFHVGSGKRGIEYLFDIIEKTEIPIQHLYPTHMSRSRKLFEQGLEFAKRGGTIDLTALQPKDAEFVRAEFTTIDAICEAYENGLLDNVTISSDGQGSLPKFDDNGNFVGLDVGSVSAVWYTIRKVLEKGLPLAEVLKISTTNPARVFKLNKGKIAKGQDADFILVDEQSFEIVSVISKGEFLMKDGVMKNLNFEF

[2] = target: T1, FiBAP (M38 β-aspartyl peptidase from Fervidobacterium islandicum AW-1); assay: X-ray crystal structure, […] Å; format: binding; settings: co-crystallised with Cbz-β-DL, but only the β-DL moiety has density; wild type; binuclear Zn active site; pH about 5
[3] = target: M38 β-aspartyl peptidase from Fervidobacterium islandicum AW-1 (FiBAP) (Fervidobacterium islandicum AW-1); assay: SEC; Superdex 200 10/300 GL, 25 mM Tris-HCl pH 7.5, 150 mM NaCl; calibrated with blue dextran, thyroglobulin, ferritin, aldolase, conalbumin, ovalbumin; apparent Mr 318,000 against 42,000 by SDS-PAGE; octamer
[4] = target: M38 β-aspartyl peptidase from Fervidobacterium islandicum AW-1 (FiBAP) (Fervidobacterium islandicum AW-1); assay: crystal structure; hanging drop vapor diffusion at 20°C; ligand-free (I422, one subunit in the asymmetric unit, 2.6 Å) and with Cbz-β-Asp-Leu (P22(1)2, four subunits, 2.7 Å); octamer (tetramer of dimers) from symmetry-related molecule analysis
[5] = substrate: CC(C)C[C@H](NC(=O)C[C@H](N)C(=O)O)C(=O)O; assay: ninhydrin assay of free amino acids, Michaelis-Menten fit; format: biochemical, Fervidobacterium islandicum; settings: 50 mM HEPES pH 8.0, 1 mM CoCl2, 80°C, 10 min, 1–32 mM substrate
Excerpt: ninhydrin assay of free amino acids, Michaelis-Menten fit on FiBAP ([…] β-aspartyl peptidase from Fervidobacterium islandicum AW-1) | steady-state kinetics analysis of FiBAP with β-DL as substrate, yielding Km and Vmax values

## CC(C)C[C@H](NC(=O)C[C@H](NC(=O)OCc1ccccc1)C(=O)O)C(=O)O [N-carbobenzoxy-β-Asp-Leu]
[1]
  enzyme activity inhibition (data not shown): our substrate analog (Cbz-β-DL) containing Cbz inhibited enzyme activity in our enzyme assays

## CC(C)C[C@H](NC(=O)C[C@H](N)C(=O)O)C(=O)O [β-Asp-Leu]
[2]
  X-ray crystal structure, 2.7 Å: included distinct electron density only for the β-DL moiety lacking carbamazepine (Cbz)

## M38 β-aspartyl peptidase from Fervidobacterium islandicum AW-1 (FiBAP) (enzyme)
[3]
  stoichiometry N: 8
[4]
  stoichiometry N: 8

B1: FiBAP (M38 β-aspartyl peptidase from Fervidobacterium islandicum AW-1) (Fervidobacterium islandicum) (protein)
chain: MIKIIKNAKVFSPEYIGKKDVIFYHKVIHVGEGVNTSVLPFEHEIYDANGLLLLPGLIDPHVHITGGGGEGGFETRTPELKISDCIRSGVTTVVGCLGTDGITRSLENLYAKAKSLESEGLNTFIYTGSYRVPPVTFTGSIMRDIVLIDKVIGVGEIAISDHRSSQPTLEEILRIVADIRVGGMISGKAGIVNFHVGSGKRGIEYLFDIIEKTEIPIQHLYPTHMSRSRKLFEQGLEFAKRGGTIDLTALQPKDAEFVRAEFTTIDAICEAYENGLLDNVTISSDGQGSLPKFDDNGNFVGLDVGSVSAVWYTIRKVLEKGLPLAEVLKISTTNPARVFKLNKGKIAKGQDADFILVDEQSFEIVSVISKGEFLMKDGVMKNLNFEF
notes: full length (M1-E386), 6xHis tag (N-terminal per methods with pET-28a, C-terminal per results), E. coli BL21(DE3); 42 kDa monomer, 318 kDa octamer (tetramer of dimers); binuclear Zn
[5]
  Km: 5.23 ± 1.59 mg/mL
